Among the data in publication PMC4355161 are fold decrease in affinity against wild type SNF2h and fold decrease in binding against wild type SNF2h values, retold here.

In this test the target is 30/30 nucleosomes labeled with Cy3 on H4 A15C, P62799. The experiment in a line: other fluorescence titration.

B1: SNF2h ΔHSS (domain or fragment)
chain: MSSAAEPPPPPPPESAPSKPAASIASGGSNSSNKGGPEGVAAQAVASAASAGPADAEMEEIFDDASPGKQKEIQEPDPTYEEKMQTDRANRFEYLLKQTELFAHFIQPAAQKTPTSPLKMKPGRPRIKKDEKQNLLSVGDYRHRRTEQEEDEELLTESSKATNVCTRFEDSPSYVKWGKLRDYQVRGLNWLISLYENGINGILADEMGLGKTLQTISLLGYMKHYRNIPGPHMVLVPKSTLHNWMSEFKRWVPTLRSVCLIGDKEQRAAFVRDVLLPGEWDVCVTSYEMLIKEKSVFKKFNWRYLVIDEAHRIKNEKSKLSEIVREFKTTNRLLLTGTPLQNNLHELWSLLNFLLPDVFNSADDFDSWFDTNNCLGDQKLVERLHMVLRPFLLRRIKADVEKSLPPKKEVKIYVGLSKMQREWYTRILMKDIDILNSAGKMDKMRLLNILMQLRKCCNHPYLFDGAEPGPPYTTDMHLVTNSGKMVVLDKLLPKLKEQGSRVLIFSQMTRVLDILEDYCMWRNYEYCRLDGQTPHDERQDSINAYNEPNSTKFVFMLSTRAGGLGINLATADVVILYDSDWNPQVDLQAMDRAHRIGQTKTVRVFRFITDNTVEERIVERAEMKLRLDSIVIQQGRLVDQNLNKIGKDEMLQMIRHGATHVFASKESEITDEDIDGILERGAKKTAEMNEKLSKMGESSLRNFTMDTESSVYNFEGEDYREKQKIAFTE
modifications: not checked
The molecule B1 showed a fold decrease in affinity against wild type SNF2h of 56 fold and a fold decrease in binding against wild type SNF2h of 22 fold.
